The values below come from patent EP1104310B1.

Test in all cases: cell-based or functional assay
Test [1] deals with CCR5 expressed on HOS-CD4 cells (UniProt P51681).
Test [2] addresses CXCR4 expressed on HOS-CD4 cells (UniProt P61073).
Test [3] deals with CCR4 expressed on HOS-CD4 cells (UniProt P51679).
Test [4] concerns the target CCR1 expressed on HOS-CD4 cells (UniProt P32246).
Test [5] addresses CCR3 expressed on HOS-CD4 cells (UniProt P51677).
Chain of UniProt P51677 (P51677 whole entry): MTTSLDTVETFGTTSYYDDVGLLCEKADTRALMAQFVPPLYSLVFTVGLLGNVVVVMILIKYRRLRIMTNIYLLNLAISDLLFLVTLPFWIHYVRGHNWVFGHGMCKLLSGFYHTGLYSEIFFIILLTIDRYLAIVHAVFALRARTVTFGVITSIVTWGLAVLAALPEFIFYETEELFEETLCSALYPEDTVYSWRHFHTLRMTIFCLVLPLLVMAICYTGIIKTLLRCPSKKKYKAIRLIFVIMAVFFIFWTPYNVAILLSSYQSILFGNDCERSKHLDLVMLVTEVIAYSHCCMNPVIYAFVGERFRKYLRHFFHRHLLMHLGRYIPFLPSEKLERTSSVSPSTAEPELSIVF

Chain of UniProt P61073 (P61073 whole entry): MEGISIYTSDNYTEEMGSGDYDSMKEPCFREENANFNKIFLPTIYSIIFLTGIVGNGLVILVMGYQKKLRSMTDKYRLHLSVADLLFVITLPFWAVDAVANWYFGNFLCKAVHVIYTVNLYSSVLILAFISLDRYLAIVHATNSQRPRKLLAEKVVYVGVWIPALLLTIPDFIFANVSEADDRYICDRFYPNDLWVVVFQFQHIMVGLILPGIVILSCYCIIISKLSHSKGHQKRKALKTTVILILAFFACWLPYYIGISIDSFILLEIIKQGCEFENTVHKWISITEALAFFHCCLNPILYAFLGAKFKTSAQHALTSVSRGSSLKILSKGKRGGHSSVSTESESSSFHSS
Chain of UniProt P51679 (P51679 whole entry): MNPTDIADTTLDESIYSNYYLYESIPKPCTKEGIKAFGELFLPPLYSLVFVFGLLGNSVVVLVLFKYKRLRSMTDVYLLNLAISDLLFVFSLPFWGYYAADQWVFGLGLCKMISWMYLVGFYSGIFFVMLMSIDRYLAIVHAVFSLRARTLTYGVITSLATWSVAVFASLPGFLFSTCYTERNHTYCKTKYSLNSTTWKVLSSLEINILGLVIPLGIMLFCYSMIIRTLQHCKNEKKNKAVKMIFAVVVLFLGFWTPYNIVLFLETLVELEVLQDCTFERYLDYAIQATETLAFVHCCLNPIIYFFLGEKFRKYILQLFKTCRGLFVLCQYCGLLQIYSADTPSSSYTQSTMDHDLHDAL
Chain of UniProt P32246 (P32246 whole entry): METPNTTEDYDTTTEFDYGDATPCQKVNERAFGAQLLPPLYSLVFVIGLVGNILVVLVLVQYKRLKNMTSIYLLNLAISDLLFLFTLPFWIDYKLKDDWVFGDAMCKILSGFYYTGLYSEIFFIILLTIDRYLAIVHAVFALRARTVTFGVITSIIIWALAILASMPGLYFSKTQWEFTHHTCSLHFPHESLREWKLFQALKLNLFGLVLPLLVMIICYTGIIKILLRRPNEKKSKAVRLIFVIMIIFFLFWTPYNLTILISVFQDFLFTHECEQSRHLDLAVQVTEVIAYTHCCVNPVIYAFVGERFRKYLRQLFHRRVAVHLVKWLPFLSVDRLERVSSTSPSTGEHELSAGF
Chain of UniProt P51681 (P51681 whole entry): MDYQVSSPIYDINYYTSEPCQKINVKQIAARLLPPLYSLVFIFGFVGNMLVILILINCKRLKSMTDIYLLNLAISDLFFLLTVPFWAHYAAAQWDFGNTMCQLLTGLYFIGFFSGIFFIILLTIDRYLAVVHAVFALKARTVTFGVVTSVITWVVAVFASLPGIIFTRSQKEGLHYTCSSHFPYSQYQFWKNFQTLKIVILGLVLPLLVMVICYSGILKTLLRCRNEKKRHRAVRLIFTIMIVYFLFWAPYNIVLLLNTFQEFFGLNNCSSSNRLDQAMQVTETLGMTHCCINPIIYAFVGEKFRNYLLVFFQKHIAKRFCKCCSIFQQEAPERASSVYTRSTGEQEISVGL

With “HIV-1 AD8 envelope, expressed on pseudovirus”, the Infectivity Titer in HOS-CD4 Cells Expressing CCR5 in test [1] was 256 titer (1:n). The Infectivity Titer in HOS-CD4 Cells Expressing CXCR4 in test [2] was < 4 titer (1:n). Further, the Infectivity Titer in HOS-CD4 Cells Expressing CCR4 in test [3] was < 4 titer (1:n). For the same substance, the Infectivity Titer in HOS-CD4 Cells Expressing CCR1 in test [4] is < 4 titer (1:n). The Infectivity Titer in HOS-CD4 Cells Expressing CCR3 in test [5] was < 4 titer (1:n).
As to “HIV-1 NL4-3 envelope, expressed on pseudovirus”, the Infectivity Titer in HOS-CD4 Cells Expressing CCR5 in test [1] was 32 titer (1:n). The Infectivity Titer in HOS-CD4 Cells Expressing CXCR4 in test [2] was > 256 titer (1:n). Besides, in test [3], the Infectivity Titer in HOS-CD4 Cells Expressing CCR4 is < 4 titer (1:n). Besides, the Infectivity Titer in HOS-CD4 Cells Expressing CCR1 in test [4] is < 4 titer (1:n). In addition, in test [5], the Infectivity Titer in HOS-CD4 Cells Expressing CCR3 was < 4 titer (1:n).
